In patent US20110009314A1, “Single-Chain Insulin Analogues and Pharmaceutical Formulations Thereof” (Novo Nordisk A/S, priority 2006, published 2011):

Test: Size exclusion chromatography (SEC, gelfiltration) migration of insulin analogues and mixtures relative to the standards X2 (monomer) and HSA
Assay type: physicochemical
Conditions: D 1.2 mM, Zn 0.6 mM
Method: Migration of the insulin analogues and insulin analogue combinations were measured in relation to the standards mentioned below.
The test mixtures were formulated with conventional pharmaceutical adjuvants and additives. All mixtures were formulated with 16/16 mM phenol/cresol. Zinc was added as zinc acetate in various amounts. pH was 7.5.
Size exclusion chromatography (SEC) was performed essentially as described in Havelund et al. 2004 Pharmaceutical research, 21, 1498-1504. The chromatographic system was a Superose 6 HR PC 6/30 column (GE healthcare) eluted by tris-buffered isotonic saline (NaCl-140 mM, tris/HCl 10 mM, NaN3 0.01%, pH 7.5 at 37° C., injecting 1% of column volume and using a flow of 90 min per column volume and UV detection at 276 nm. The references were a stable insulin monomeric insulin X2 (AspB9, GluB27 human insulin, zinc free), a stable hexameric insulin: Co(III) insulin, albumin (HSA), and covalent albumin (formed in solution).

Substance: Lys^B29(N^ε-(N-lithocholyl-γ-glutamyl)) des(B30) human insulin [Compound D]
- Measured SEC migration % HSA: 78%
- Measured SEC migration % X2: 15%
